Test [1] addresses T1, Human IL-4Rα overexpressed on HEK293T cells (Homo sapiens (Human)., UniProt P24394). The test is described as follows: cell-based or functional assay.
In test [2] the target is T2, Biotinylated IL-4Rα (Homo sapiens (assumed), UniProt P24394, biotin).
T2 construct: IL-4 receptor alpha (IL-4Rα); Probably a soluble extracellular construct of the human receptor (surmised); also called IL-4Ra; immobilized IL-4Rα
Put plainly: SPR; iMSPR-ProX; biotinylated IL-4Rα immobilised on the sensor chip (A-Dex100) at 169.7 RU; Dup-scFv at 1.56-100 nM; regeneration with 10 mM glycine-HCl pH 1.5; 1:1 kinetic binding model. The conditions noted are these: both partners purified. (In general: Surface plasmon resonance follows binding to a sensor surface in real time, without labels.)

The target of test [3] is T1, Human IL-4Rα overexpressed on HEK293T …. The test is described as follows: flow cytometry on cells; human IL-4Rα-overexpressing HEK293T cells, 2x10^5 cells/tube in PBS; seven-point curve; Dup-scFv detected with anti-6xHIS antibody and Alexa Fluor-647 anti-mouse IgG, dupilumab with Alexa Fluor-647 anti-human IgG; fitted in GraphPad Prism 8. As to conditions: one partner purified.

A word on the Kd: it is the constant that tells how readily two partners part at equilibrium. A lower Kd goes with higher affinity. As usually defined, the EC50 is the concentration at which the effect is half-maximal.

T1 sequence (P24394 26-825): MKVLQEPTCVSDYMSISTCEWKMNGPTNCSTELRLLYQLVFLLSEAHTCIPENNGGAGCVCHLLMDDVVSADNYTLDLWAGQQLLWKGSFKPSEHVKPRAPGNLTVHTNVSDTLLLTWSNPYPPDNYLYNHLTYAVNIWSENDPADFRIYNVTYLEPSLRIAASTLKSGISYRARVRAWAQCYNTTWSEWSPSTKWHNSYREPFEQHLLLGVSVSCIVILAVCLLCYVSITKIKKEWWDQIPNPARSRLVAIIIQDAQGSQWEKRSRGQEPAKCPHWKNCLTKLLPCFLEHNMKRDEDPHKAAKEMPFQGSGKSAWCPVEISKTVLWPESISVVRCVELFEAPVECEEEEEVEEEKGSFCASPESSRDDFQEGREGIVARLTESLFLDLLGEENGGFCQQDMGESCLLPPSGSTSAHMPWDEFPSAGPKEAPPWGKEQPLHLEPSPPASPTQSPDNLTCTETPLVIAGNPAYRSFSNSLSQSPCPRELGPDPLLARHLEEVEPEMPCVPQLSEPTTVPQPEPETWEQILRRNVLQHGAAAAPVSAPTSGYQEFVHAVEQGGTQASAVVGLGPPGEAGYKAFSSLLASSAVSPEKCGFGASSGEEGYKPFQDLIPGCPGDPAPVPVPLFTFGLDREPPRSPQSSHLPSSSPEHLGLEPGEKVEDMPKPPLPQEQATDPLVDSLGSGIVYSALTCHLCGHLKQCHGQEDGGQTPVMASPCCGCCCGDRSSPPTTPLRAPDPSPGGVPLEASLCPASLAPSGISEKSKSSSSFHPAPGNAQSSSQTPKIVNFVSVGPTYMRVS
T2 sequence (P24394 26-825): as above

B1: Dup-scFv with HDEL (single-chain variable fragment of dupilumab produced by Nicotiana benthamiana) (scFv, V domains shown)
VH: EVQLVESGGGLEQPGGSLRLSCAGSGFTFRDYAMTWVRQAPGKGLEWVSSISGSGGNTYYADSVKGRFTISRDNSKNTLYLQMNSLRAEDTAVYYCAKDRLSITIRPRYYGLDVWGQGTTVTVSS
VL: DIVMTQSPLSLPVTPGEPASISCRSSQSLLYSIGYNYLDWYLQKSGQSPQLLIYLGSNRASGVPDRFSGSGSGTDFTLKISRVEAEDVGFYYCMQALQTPYTFGQGTKLEIK
notes: VH region of dupilumab; linker, printed as (GGGGS)4 / 4 x G4S; VL region of dupilumab; The form without HDEL is GenBank PP711327; also called dupilumab-scFv; source: N. benthamiana leaves, Agrobacterium-mediated transient expression with p19, purified (Ni-NTA); not shown: His6, C-terminal, kept
On to B1, for which the “IL-4-induced CCL26 mRNA (qPCR; more than 3000-fold with IL-4 alone) in HNECs with Dup-scFv 20 μg/ml on the apical side” value in test [1] turned out to be 1790 fold. Also, the Kd in test [2] amounted to 0.476 nM. Further, the EC50 in test [3] came to 17.3 nM.

B2: Dupilumab (antibody, V domains shown)
VH: EVQLVESGGGLEQPGGSLRLSCAGSGFTFRDYAMTWVRQAPGKGLEWVSSISGSGGNTYYADSVKGRFTISRDNSKNTLYLQMNSLRAEDTAVYYCAKDRLSITIRPRYYGLDVWGQGTTVTVSS
VL: DIVMTQSPLSLPVTPGEPASISCRSSQSLLYSIGYNYLDWYLQKSGQSPQLLIYLGSNRASGVPDRFSGSGSGTDFTLKISRVEAEDVGFYYCMQALQTPYTFGQGTKLEIK
notes: heavy chain of dupilumab (IgG4); light chain of dupilumab; IgG4 subclass monoclonal antibody (developed by Regeneron/Sanofi)
Take B2: in test [1], the “IL-4-induced CCL26 mRNA (qPCR; more than 3000-fold with IL-4 alone) in HNECs with dupilumab 100 μg/ml on the apical side” value is 2200 fold. Moreover, the Kd in test [2] turned out to be 0.133 nM. The response in test [3] was half-maximal at 1.02 nM (EC50).

The values are drawn from paper PMC11196582 (Scientific Reports, 2024).
